# According to patent publication US10781456B2, “Carbon-neutral and carbon-positive photorespiration bypass routes supporting higher photosynthetic rate and yield” (Max-Planck-Gesellschaft zur Förderung der Wissenschaften …, priority 2015, dated 2020):
# Experiments:
# [1] = system: malonyl-CoA; settings: 0.3 mM substrate, 37° C., Kröger et al. 2011; cited from earlier work
# [2] = system: tartronyl-CoA; assay: malonyl-CoA reductase spectrophotometric assay, NADPH oxidation at 365 nm, tartronyl-CoA into glycerate (reactions 4# and 5); format: biochemical; settings: 0.25 mM tartronyl-CoA, 37° C.
# Procedure: The kinetics of the MCRCa enzyme for enzymatically converting the substrate tartonyl-CoA into glycerate (via reactions 4# and 5 both catalyzed by MCRCa) were determined spectrophotometrically at 365 nm following the oxidation of NADPH. Per molecule tartronyl-CoA, two molecules of NADPH are oxidized by MCRCa (a first in reaction 4# and a second in reaction 5) The measurements were carried out at 37° C. in a total reaction volume of 200 μL containing 100 mM MOPS buffer (with 5 mM MgCl2, pH 7.5) with an initial NADPH concentration of 0.4 mM NADPH and 23 μg MCRCa.
# An alternative enzyme for catalyzing the conversion of tartonyl-CoA into glycerate (via reactions 4# and 5) is the MCR from Erythrobacter sp. NAP1 (MCRE). It was tested for its activity with malonyl-CoA and for tartronyl-CoA with the assay described above for MCRCa.
# [3] = system: glycolyl-CoA; assay: MCRCa coupled assay: glycolyl-CoA carboxylation by PCC coupled to two step reduction to glycerate by MCRCa (reactions 3#, 4#, 5), HPLC-hrMS and NADPH absorption; format: biochemical; settings: tartronyl-CoA produced by PCCMe_D407I_Y143H
# Procedure: In addition to the above mentioned assays also another assay was performed in which the formation of tartronyl-CoA from glycolyl-CoA (reaction 3#) by the PCCMe_D407I_Y143H enzyme was directly coupled to its subsequent two step reduction via tartronate-semialdehyde (reaction 4#) to glycerate (reaction 5) by use of the purified MCRCa (Kröger et al., 2011, loc. cit.). The reaction mixture (300 μL) contained 200 mM NH4HCO3 buffer, pH 7.7, 5 mM MgCl2, 1 mM ATP, 0.4 mM NADPH, 43 μg PCCMe_D407I_Y143H, and 184 μg of MCRCa.
# To determine whether MCRCa was able to catalyze the two step reduction of tartonyl-CoA to glycerate (via tartronic semialdehyde), samples of the reaction mixture were withdrawn after all of the NADPH was consumed. The samples were stopped with formic acid (5% final concentration). The acidified samples were centrifuged at 4° C. and 17 000×g and the supernatants were analyzed by HPLC-hrMS.
# The formation of glycerate was analyzed using an Agilent 6550 iFunnel Q-TOF LC-MS system equipped with an electrospray ionization source set to negative ionization mode. […]
# LC-MS data were analyzed using MassHunter Qualitative Analysis software (Agilent). […] In such assays the tartronate semialdehyde can be covalently derivatized with phenylhydrazine to a phenylhydrazone, which can be detected by its absorbance at 324 nm and confirmed by its corresponding mass spectrum. […]
molecule,measurement,setting,value
"MCRCa: malonyl-CoA reductase of Chloroflexus aurantiacus, NCBI accession no. AAS20429.1, SEQ ID NO: 8 (protein, listed as Chloroflexus aurantiacus, [CDS]1..3663 from SEQ ID NO 7) MSGTGRLAGKIALITGGAGNIGSELTRRFLAEGATVIISGRNRAKLTALAERMQAEAGVPAKRIDLEVMDGSDPVAVRAGIEAIVARHGQIDILVNNAGSAGAQRRLAEIPLTEAELGPGAEETLHASIANLLGMGWHLMRIAAPHMPVGSAVINVSTIFSRAEYYGRIPYVTPKAALNALSQLAARELGARGIRVNTIFPGPIESDRIRTVFQRMDQLKGRPEGDTAHHFLNTMRLCRANDQGALERRFPSVGDVADAAVFLASAESAALSGETIEVTHGMELPACSETSLLARTDLRTIDASGRTTLICAGDQIEEVMALTGMLRTCGSEVIIGFRSAAALAQFEQAVNESRRLAGADFTPPIALPLDPRDPATIDAVFDWGAGENTGGIHAAVILPATSHEPAPCVIEVDDERVLNFLADEITGTIVIASRLARYWQSQRLTPGARARGPRVIFLSNGADQNGNVYGRIQSAAIGQLIRVWRHEAELDYQRASAAGDHVLPPVWANQIVRFANRSLEGLEFACAWTAQLLHSQRHINEITLNIPANISATTGARSASVGWAESLIGLHLGKVALITGGSAGIGGQIGRLLALSGARVMLAARDRHKLEQMQAMIQSELAEVGYTDVEDRVHIAPGCDVSSEAQLADLVERTLSAFGTVDYLINNAGIAGVEEMVIDMPVEGWRHTLFANLISNYSLMRKLAPLMKKQGSGYILNVSSYFGGEKDAAIPYPNRADYAVSKAGQRAMAEVFARFLGPEIQINAIAPGPVEGDRLRGTGERPGLFARRARLILENKRLNELHAALIAAARTDERSMHELVELLLPNDVAALEQNPAAPTALRELARRFRSEGDPAASSSSALLNRSIAAKLLARLHNGGYVLPADIFANLPNPPDPFFTRAQIDREARKVRDGIMGMLYLQRMPTEFDVAMATVYYLADRNVSGETFHPSGGLRYERTPTGGELFGLPSPERLAELVGSTVYLIGEHLTEHLNLLARAYLERYGARQVVMIVETETGAETMRRLLHDHVEAGRLMTIVAGDQIEAAIDQAITRYGRPGPVVCTPFRPLPTVPLVGRKDSDWSTVLSEAEFAELCEHQLTHHFRVARKIALSDGASLALVTPETTATSTTEQFALANFIKTTLHAFTATIGVESERTAQRILINQVDLTRRARAEEPRDPHERQQELERFIEAVLLVTAPLPPEADTRYAGRIHRGRAITV",specific activity with malonyl-CoA,[1],approximately 7 U mg^−1
same,specific activity with tartronyl-CoA,[2],0.6 U mg^−1
same,reduction of tartronyl-CoA to glycerate (HPLC-hrMS),[3],"able to reduce the tartronyl-CoA, produced by PCCMe_D407I_Y143H, to glycerate"
